These are literature values, as cited in PMC3324669.

For the series, the target named is CD155 (Homo sapiens) (UniProt P15151).

pKd: −log10 of the molar value.

Chain of UniProt P15151 (P15151 21-343): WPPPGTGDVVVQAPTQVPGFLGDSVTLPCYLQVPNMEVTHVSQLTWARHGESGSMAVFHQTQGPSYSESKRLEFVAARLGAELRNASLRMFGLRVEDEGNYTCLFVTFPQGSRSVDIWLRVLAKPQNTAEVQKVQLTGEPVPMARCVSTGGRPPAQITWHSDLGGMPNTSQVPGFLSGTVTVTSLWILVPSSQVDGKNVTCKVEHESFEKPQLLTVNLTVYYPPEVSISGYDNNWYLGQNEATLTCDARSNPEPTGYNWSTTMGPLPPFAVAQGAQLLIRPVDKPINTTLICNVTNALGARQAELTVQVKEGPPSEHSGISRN

For CD226 (from UniProt Q15762), the pKd is 8.70.
